Reference: the nanobody polyreactivity screen of Harvey et al. (2022)

Experiment: yeast display, Sf9 membrane polyspecificity reagent, FACS + sequencing; frameworks hold sequencing errors
In short: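 Galactose induction of a Saccharomyces cerevisiae BJ5465 synthetic nanobody display library ran 36–48 hours. The cells were then stained for 1 hour at 4 °C with 10% biotinylated, detergent-solubilized Sf9 membrane reagent, pulled down on streptavidin microbeads and FACS-sorted into low and high (top ~1%) gates on expression and reagent-binding fluorescence. Labels for polyreactivity follow the gate of origin.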

Row | Sequence | polyreactivity (PSR sort gate)
1 | QVQLVESGGGLVQAGGSLRLSCAASGSTFKYYAMGWYRQAPGKERELVASITRTGSSTYYADSVKGRFTISRDNAKNTVYLQMNSRKPEDTAVYYCNTGPHSVWWHYGYDYWGQGTQVTVSS | high polyreactivity
2 | QVQLVESGGGLVQAGGSLRLSCAASGSIFTLYAMGWYIQAPGKEREFVAGMSFSTGRTYYADSVKGRFTISRDNAKNTVYLQMHSLTPEDTAGYYCAAYVSHYWYGLYRDGYWGQGTQATVSS | low polyreactivity
3 | QVQLVESGGGLVQAGGSLRLICAASGSTFYSNAMGWYRQAPGKERELVAAINYSGGGTYYADSVKGRFTISRDNAKNTVYLQMNSLKPEDTAVYYCAADGSYVHWEYGYWGQGTQVTVSS | low polyreactivity
4 | QVQVVESGGGLVQAGGSLRLSCAASGSISSWYALGWYRPAAGYERELVADISSGVNTYYADSVKGRFTISRDNAKNTVYLQMNSLKTEDTAVYYCNAESLTFADPFYNYTYDYWGQGTQVTVSS | low polyreactivity
5 | QVQLVESGGGIVQAGGSLRLSCAASGRTFSSYARGWYRQAPGKERELVAAISSDGVDTYYADSVKGRFTISRDNAKNTVYLQMNSLKPEDTAVYYCNAEEGGPEYAYSYYRMDYWGQGTQVTVSS | low polyreactivity
6 | QVQLVESGVGIVEAGGSLRLSCAASGRSFTYNAMVWYRQAPGKERELVAAISNTGSTYYADSVKGRFTISRDNAKNSVYLQMNCVKPEDTAVYYCAADRAEFRQDDDPGESNYWGQGTQVTVSS | low polyreactivity
7 | QVQLVESGGGLVQAGGSLLLSCSASGRTFAYNAMGLYRQAPGKEREWVASISSSDTSTYYADSVNGRFTISRDNAKNTVYLQMNSLKPVDTAVYYCAADGHPFKGVRYYYWGQGTQVTVSS | low polyreactivity
8 | QVQLQESVVGLVLAGGSLRLICSASANISVYGSMGWYRKAPGKEREFVATIDPGTNTNYADSVKDRFTISRDNAKNTVFLQINSLKPEYTAVYYCAVEGGSDWPYRYWGQGTQVTVSS | low polyreactivity
9 | QVQLVETGGGLVQAGGSLRLSCAASGLTFIEYAMGWYRQAPGKERELVAAISSGGRTYYADSVKGRFTISRDNAKNTVYLQMNSLKPEDTAVYYCNARGYRRWYNYWGQGTQVTVSS | high polyreactivity
10 | QVQLVESGGGLVQAGGSLRLSCAASGITYGYNTMGWYRQAPGKERELVADISRSGGRTYYADSVKARFTISRDNAKNTVYLQMNSLKPEDTAVYYCAAVSNSGHYYYWGQGTQVTVSS | high polyreactivity
11 | QVQLVESGGGLVQAGGSLRLSCAASGSTFYTNAMGWYRQAPGKERELVAAISGSGGSTYYADSVKGRFTISRDNAMNTVYLQMNSLKPEDTAVYYCADRSRYYDTRFDYWGQGTQVTVSS | low polyreactivity
12 | QVQLVESGGGLVQAGGSLRLSCAASGLIFRVYAMGWYRQAPGKERELVATITRGGRTYYADSVKGRFTISRDNAKNTVYLQMNSLKPEDTAVYYCAVLSVRRSYNYWGQGTQVTVSS | high polyreactivity
13 | QVQLVESGGGLVQAGGSLRLSCAASGSIFYLYAMGWYRQAPGKERELVAGITWSGGRTYYADSVKGRFTISRDNAKNTVYLQMNSLKPEDTAVYYCAAYASRYRYGYWGQGTQVTVSS | high polyreactivity
14 | QVQLVESGGGLVQAGGSLRLSCAASGRIFSYYAMGWYRQAPGKERELVASISRGSSTYYADSVKGRFTISRDNAKNTVYLQMNSLKPEDTAVYYCARQWLGYPYTTYTGSPVEGYGYWGQGTQVTVSS | high polyreactivity
15 | QVQLVESGGGLVQAGGSLRLSCAASGRTFDFYAMGWYRQAPGKERELVAAITFSTGSTTYADSVKGRFTISRDNAKNTVYLQMNSLKPEDTAVYYCGADGDGWWWSYVDRYDYWGQGTQVTVSS | low polyreactivity
16 | QVQLVESVGGLVQAGGSLRLSCAASGSTLYQYAMGWYRQAPGKERELVAAITKSGGRTYYADSVKGRFTISRDNAKNTVYLQMNSLKPEDTAVYYCNVVRGSYSSGGDYWGQGTQVTVSS | high polyreactivity
17 | QVQLVDSGGGLVQAGGSLRLSCAASGSNFTKYAMGWYRQAPGKERELVAAILRSGDRTYYADSVKGRFTISRDNAKNTVYLQMTSMIPEDTAVYYCAAGYSQYWTDPQGFAYDYWGQGTQVTVSS | low polyreactivity
18 | QVQLVESGGGLVQAGGSLRLSCAASGRIIGYYAMGWYRQAPGKERELGAAITRGGSTNYADSVKGRFTISRDNAKNTVYLQMNSLKPEDTAVYYCAADLARYGKRYDYWGQGTQVTVSS | low polyreactivity
19 | QVQLVESGGGLVQAGGSLRLSCAASGFTFIYYAMGWYRQAPGKERELVAAITSGGNTYYADSVKGRFTISRDNAKNTVYFQMNSLKPEDTAVYYCNKVPHREWVGGYDYWGQGTQVTVSS | low polyreactivity
20 | QVQLVESGGRLVQAGGSLRLSCAASGRTFARNAMGWYRQAPGKERELVAAISWSGGSTYYADSVKGRFTISRDNAKNTVYLQMNSLKPEDTAVYYCAARICYYNYWGQGTQVTVSS | high polyreactivity
21 | QVQLVESGGGLVQAGGSLRLSCAASGSISGRYAMGWSRQAPGKEMELVAAISWIGGSTYYADSVKGRFTISRDNAKNTVYLQMISLKPEDTAVYYCYVTIDTRTDPLLVVLYGYDYWGQGTLVTVSS | low polyreactivity
22 | QVQIVESGGGLVQAGGSLRLSCAASGYIFSVYAMGWYRQAPGKERELVAAITFRTGRTYYADSVKWRFTISRDNAKNTVYLQMNSLKPEDTAVSYCAADGYWTTFYNLYGYWGQGTQVTVSS | high polyreactivity

Row | Sequence | polyreactivity (PSR sort gate)
23 | QVQLVESGGALVQAGGSLRLSCAASRSIFWINAMGGYRQAPGTERELVADNDVSGGSTYYADTVKGRFTISRDNAKNTVYLKMNSLKPEDTEVYYCAADDYWAYLYYKTSEYDYWGQGTQVTVSS | low polyreactivity
24 | QVQLVESVGGLVQAGGSLRLSCAASGYTFPDYAMGWYRQAPGKEREFVATISWSGTSTYYADSVKGRFTISRDNAKNTVYLQMNSLKPEDTAVDYCNASAYYPPSSSRYDYWGQGTQVTVSS | low polyreactivity
25 | QVQLVESGGGLVQAGGSLRLSCAASGLIFFYYPMGWYRQAPGKEWEMVAAIRTNYADSVKGRFTISRDNAKNTVDLQMYSLKREDTADYYCAAESSQTPTSAFDYWGQGTQVTVSS | low polyreactivity
26 | QVQLVESGGGLVQAGGSLRLSFAASGSTFTYNDMGWYRQAPGKERELVARITFSSGRTYYADSVKGRFTISRDNAKNTVYLQMNSLKPEDTAVYYCARQWYWRPGYYIGQGYEYWGQGTQVTVSS | low polyreactivity
27 | QVQLQESGGGMVQAGGSLRLSCAASGYISWADYMGWYRQAPGKERELVAGIGYGSTTYYADSVKGRFTISRDNAKNTAYLQMNSLKPEDTAVYYCSVGWYRDTAYKYWGQGTQVTVSS | low polyreactivity
28 | PVQLVESGGGLVQAGGSLRLSCAASGSIFPSYAMGWYRQAPGKERELVATIGRGGTTNYADSVKGRFTISRDNAKNTVYLQKNSLKPEDTGVYYCNAERIWRYKYGYDYWGQGTQVTVSS | high polyreactivity
29 | QVQLVESGRGLVQAGGSLRLSCAPSGRISAQYTMGWYRQAPGKERELVAAITWSGTNTYYADSVKGRFTISRDNAKNTVYLQMNSLKPEDTAVYYCATAVYLVIFEYDYWGQGTQVTVSS | low polyreactivity
30 | QVQLVESGGGLVQAGGSLRLSCAASGRIFRKYAMGWYRQAPGKERELVAGITWRGTSTYYADSVKGRFTISRDNAKNTVYLQMNSLKPEDTAVYYCAAEWKGYYVHDYWGQGTQVTVSS | high polyreactivity
31 | QVQLVESGGGLVQAGGSLRLRCAASAGTFGIYSMGWYRQAPGKEREFVAAISGRGGTTYDADSVKGRFTISRDNAKYTVYLQMNSLKPVDTAVYYWATDSVNVGSNVGDKHDYWGQGTQVTVSS | low polyreactivity
32 | QVQLVESGGGLVQAGGSLRLSCAASGSTFSVYAMGWYRQAPGKERELVATISWGGGITYYADSVKGRFTISRDNAKNTVYLQMNSLKPEDTAVYYCHSSKYGYWGQGTQVTVSS | high polyreactivity
33 | QVQLVESGGGLVQAGGSLRVSCAASGSTFTAYAMGWYRQAPGKERELVAAINWSGGTTYYADSVKGRFTISRDNAKNTVYLQMNSLKPEDTAVYYCAVDGNFFGEVRPYDYWGQGTQVTVSS | low polyreactivity
34 | KVQLVESGGGLVQAGGSLRLSCAASGSIFDLYTMGWYRQAPGKERELVATISSGGSTNYADSVKGRFTISRDNAKNTVNLQMNSLKPEDTAVYYCAAGSTHYDIHFDYWGQGTQVTVSS | low polyreactivity
35 | QVQLVESGGGLVQAGGSLRLSCAASGRIFVKYAMGWYRQAPGKEREMVAAISASGGGTYYADSVKGRFTISRDNAKNTVYLQMNSLNPVDTAVYYFNADFRYPGQVPSYVTYDYWGQGTQVNVSS | low polyreactivity
36 | QVQLQESGGGLVQAGGSMRLSCAASGYNTIEVTRACFARRRAKNANLLPLLITVVLPIKRIAYNTISRDNAKNTVYLQMNSLKPEDTAVYNCAANTIGTDLYEYWGQGTQATVSS | low polyreactivity
37 | QVHLVESVGGLVQAGGSLRLSCAGSGRIFYLNSMGWYRQATGKDRELVAGITNSTTGTYYADSVKGRFKISRDNAKNTVYLQMNSLKAEETAVYYCNTDVAYEEPVETYDYWGQGTQVTVSS | low polyreactivity
38 | QVQLVESGGGLVQAGGSLRLSCAASGGTFSKYAMGWYRQAPGKEREFVAAITVSGGGTYYADSVKGRFTISRDNAKNTVYLQMNSLKPEDTAVYYCAADLGWTASDYWGQGTQVTVSS | low polyreactivity
39 | QVQLVESGGGLVQAGGSLRLSCAASGIILVYNAMGWYRQAPGKERELVAAISSSGGTTYYADSVKGRFTISRDNAKNTVYLQMNSLKPEDTAVYYCNAALPVTRSERYGSDYWGQGTQVTVSS | low polyreactivity
40 | QVQLVESGGGLVQAGGSLRLSCAASGMTFDYYAMGWYRQAPGKERELVAAIRSGGSTNYADSVKGRFTISRDNAKNTVYLQMNSLKPEDTAVYYCAAVRYFPWYDYWGQGTQVTVSS | high polyreactivity
41 | QVQLVESGGGLVQAGGSLRLSCAASGGIFPWNAMGWYRQAPGKERELVAAIDNTDGTHYADSVKGRFTISRDNAKNTVYLQMNSQKPEDTAVYYCAAEYYYFVYPFYNWGYEYWGQGTQVTVSS | high polyreactivity
42 | QVQLVESGGGLVQAGGSLRLSCAASGFTFRDNTMGWYRQAPGKERELVASISWSGGSTYYADSVKGRFTFSRDYAKNTVYLQMNSVKPEDTAVYYCAADDGSQYYFVSPHEYDYWGQGTQVTVSS | low polyreactivity
43 | QVQLVESGGGLVQAGGSLRLSCAASGSIFGAYAMGWYRQAPGKERELVAVISRSGGRTYYADSVKGRFTISRDNAKNTVYLQMNSLKPEDTAVYYCAASYPVPPYGMDYWGQGTQVTVSS | high polyreactivity
